The test deals with T1, highly purified Flag-HA-tagged NRF2 (human, UniProt Q16236 1-605).
T1 sequence (looked up): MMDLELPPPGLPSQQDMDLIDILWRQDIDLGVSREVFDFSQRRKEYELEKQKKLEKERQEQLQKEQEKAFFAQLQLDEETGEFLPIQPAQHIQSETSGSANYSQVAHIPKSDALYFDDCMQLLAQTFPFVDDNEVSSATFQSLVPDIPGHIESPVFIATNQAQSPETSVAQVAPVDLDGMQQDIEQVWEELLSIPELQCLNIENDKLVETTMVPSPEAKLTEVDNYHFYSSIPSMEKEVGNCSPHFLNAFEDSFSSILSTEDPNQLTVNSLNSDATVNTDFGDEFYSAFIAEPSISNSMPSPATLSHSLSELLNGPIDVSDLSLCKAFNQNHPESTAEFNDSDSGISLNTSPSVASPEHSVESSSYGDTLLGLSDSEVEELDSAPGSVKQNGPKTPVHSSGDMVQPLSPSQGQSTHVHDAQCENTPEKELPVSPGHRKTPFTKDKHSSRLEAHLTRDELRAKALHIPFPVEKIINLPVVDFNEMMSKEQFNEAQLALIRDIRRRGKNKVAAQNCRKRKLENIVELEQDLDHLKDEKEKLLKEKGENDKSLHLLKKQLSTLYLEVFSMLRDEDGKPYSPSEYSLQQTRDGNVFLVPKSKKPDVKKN
Briefly: pull-down.

B1: GST-ARF (1–64) (domain or fragment, UniProt Q8N726 1-64, looked up)
chain: MVRRFLVTLRIRRACGPPRVRVFVVHIPRLTGEWAAPGAPAAVALVLMLLRSQRLGQQPLPRRP
On to B1, for which the binding result is “binds”.

(Values after PMC5683418 (Molecular cell, 2017).)
